The source of these data is publication PMC8229956.

Test [1] has as its target Oryza sativa TIR1 wild type with nuclear localisation signal (OsTIR1^WT-NLS) (Oryza sativa).
For test [2] the target is unchanged. This is another data set of the same source.

Mcm4-AID-V5 (from UniProt P93830 1-229) showed a reduction in Mcm4-AID-V5 protein level (anti-V5 immunoblot of total extract, normalised to tubulin) in cells expressing OsTIR1^WT in the absence of NAA, against cells with no OsTIR1 in test [1] of 14%. Consider “Rad52-AID-V5 (from UniProt P93830 1-229)”, for which the reduction in Rad52-AID-V5 protein level (anti-V5 immunoblot of total extract, normalised to tubulin) in cells expressing OsTIR1^WT in the absence of NAA, against rad52-AID-V5 cells with no OsTIR1 in test [2] turned out to be 14%.
